The values that follow come from patent US20210277066A1 (BRIGHAM AND WOMEN S HOSPITAL, published 2021).

This test deals with T1, mouse LY6A (mouse, UniProt P05533 27-112).
T1 construct: whole, on cells; Over-expressed on HEK293T cells
T1 sequence: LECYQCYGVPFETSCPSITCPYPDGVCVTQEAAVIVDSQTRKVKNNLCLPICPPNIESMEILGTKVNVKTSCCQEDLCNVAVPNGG
In words: AAV binding to LY6A-transfected HEK293T cells on ice; bound viral genomes counted by qPCR. (In general: Real-time PCR tracks product formation cycle by cycle.)

B1: AAV.CPP.21 (other)
chain: MAADGYLPDWLEDNLSEGIREWWALKPGAPQPKANQQHQDNARGLVLPGYKYLGPGNGLDKGEPVNAADAAALEHDKAYDQQLKAGDNPYLKYNHADAEFQERLKEDTSFGGNLGRAVFQAKKRLLEPLGLVEEAAKTAPGKKRPVEQSPQEPDSSAGIGKSGAQPAKKRLNFGQTGDTESVPDPQPIGEPPAAPSGVGSLTMASGGGAPVADNNEGADGVGSSSGNWHCDSQWLGDRVITTSTRTWALPTYNNHLYKQISNSTSGGSSNDNAYFGYSTPWGYFDFNRFHCHFSPRDWQRLINNNWGFRPKRLNFKLFNIQVKEVTDNNGVKTIANNLTSTVQVFTDSDYQLPYVLGSAHEGCLPPFPADVFMIPQYGYLTLNDGSQAVGRSSFYCLEYFPSQMLRTGNNFQFSYEFENVPFHSSYAHSQSLDRLMNPLIDQYLYYLSKTINGSGQNQQTLKFSVAGPSNMAVQGRNYIPGPSYRQQRVSTTVTQNNNSEFAWPGASSWALNGRNSLMNPGPAMASHKEGEDRFFPLSGSLIFGKQGTGRDNVDADKVMITNEEEIKTTNPVATESYGQVATNHQSAQTVSALFKAQAQTGWVQNQGILPGMVWQDRDVYLQGPIWAKIPHTDGNFHPSPLMGGFGMKHPPPQILIKNTPVPADPPTAFNKDKLNSFITQYSTGQVSVEIEWELQKENSKRWNPEIQYTSNYYKSNNVEFAVNTEGVYSEPRPIGTRYLTRNL
notes: Tested as a whole recombinant AAV particle (rAAV-mCherry); also called Bip2.6 insert TVSALFK
Take B1: the binding result is listed as “no binding (tested: MOI of 10000)”.

B2: AAV.CPP.16 (other)
chain: MAADGYLPDWLEDNLSEGIREWWALKPGAPQPKANQQHQDNARGLVLPGYKYLGPGNGLDKGEPVNAADAAALEHDKAYDQQLKAGDNPYLKYNHADAEFQERLKEDTSFGGNLGRAVFQAKKRLLEPLGLVEEAAKTAPGKKRPVEQSPQEPDSSAGIGKSGAQPAKKRLNFGQTGDTESVPDPQPIGEPPAAPSGVGSLTMASGGGAPVADNNEGADGVGSSSGNWHCDSQWLGDRVITTSTRTWALPTYNNHLYKQISNSTSGGSSNDNAYFGYSTPWGYFDFNRFHCHFSPRDWQRLINNNWGFRPKRLNFKLFNIQVKEVTDNNGVKTIANNLTSTVQVFTDSDYQLPYVLGSAHEGCLPPFPADVFMIPQYGYLTLNDGSQAVGRSSFYCLEYFPSQMLRTGNNFQFSYEFENVPFHSSYAHSQSLDRLMNPLIDQYLYYLSKTINGSGQNQQTLKFSVAGPSNMAVQGRNYIPGPSYRQQRVSTTVTQNNNSEFAWPGASSWALNGRNSLMNPGPAMASHKEGEDRFFPLSGSLIFGKQGTGRDNVDADKVMITNEEEIKTTNPVATESYGQVATNHQSAQTVSALKAQAQTGWVQNQGILPGMVWQDRDVYLQGPIWAKIPHTDGNFHPSPLMGGFGMKHPPPQILIKNTPVPADPPTAFNKDKLNSFITQYSTGQVSVEIEWELQKENSKRWNPEIQYTSNYYKSNNVEFAVNTEGVYSEPRPIGTRYLTRNL
notes: Tested as a whole recombinant AAV particle (rAAV-mCherry); also called Bip2.1 insert TVSALK
For the molecule B2, the binding result is recorded as “no binding (tested: MOI of 10000)”.
